Test: yeast display, Sf9 membrane polyspecificity reagent, FACS + sequencing; frameworks hold sequencing errors
Outline: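 After 36–48 hours of galactose induction, yeast (Saccharomyces cerevisiae BJ5465) displaying a synthetic nanobody library were stained at 4 °C for 1 hour with 10% biotinylated, detergent-solubilized Sf9 membrane reagent. Streptavidin microbeads enriched the stained cells before FACS sorting into low and high (top ~1%) gates on anti-HA and streptavidin fluorescence. Each clone's polyreactivity label reflects its gate of origin.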

| Sequence | polyreactivity (PSR sort gate) |
| --- | --- |
| QVQLVESGGGLVQAGGSLRLSCAASGRIFYYYTMGWYRQAPGKERELVAGISRSGDRTYYADSVKGRFTISRDNAKNTVYLQMNSLKPEDTAVYYCATRWSSARMDYWGLGTQVTVSS | high polyreactivity |
| QVQLVESGGGLVQAGGSLRLSCAASGRIGKYAMGWYRQAPGKERELVATISSTGTTNYADSVKGRFTISRDNAKNTVYLQMNSLKPEDTAVYYCAGRWEYVGYRRRYYRFDYWGQGTQVTVSS | high polyreactivity |
| QVQLVESGGGLVQAGGSLRLSCAASGRIIAKYAMGWYRQAPGKERELVAAINWGGGSTYYADSVKGRFTISRDNAKITVYLQMNSLKPEDTAVYYCNRTPRSKGNYWGQGTQVTVSS | high polyreactivity |
| QVQLVESGGGLVQAGGSLRLSCAASGRIIARYAMGWSRQAPGKERELVAAISRGGGRTYYADSVKGRFTISRDNATNTVYLQMNSLKPEDTAVYYCAADAYSIASVGYDYWGQGTQVTVSS | high polyreactivity |
| QVQLVESGGGLVQAGGSLRLSCAASGRIIDDNAMGWYRQAPGKERELVASITVSTGSTYYADSVKGRFTISRDNAKNTVYLQMNSLKPEDTAVYYCDAPYITPYGTYVFSSDYWGQGTQVTVSS | low polyreactivity |
| QVQLVESGGGLVQAGGSLRLSCAASGRIIDRNAMGWYRQAPGKERELVAAISSSGSTNYADSVKGRFTISRDNAKNTVYLQMNSLKPEVTAVYYCAARWRSVLAAGTRPVSFDYWGQGTQVTVSS | low polyreactivity |
| QVQLVESGGGLVQAGGSLRLSCAASGRIIGGNAMGWYRPAPGKEREFVAAIRASGGSTHYADSVKGRFTISRDNAKNTVYLQMNSLKPEDTAVYYCNTYRARLGTTFIDYDYWGQGTQVTVSS | high polyreactivity |
| QVQLVESGGGLVQAGGSLRLSCAASGRIIGGYAMGWYRQAPGKERELVAAITFRSGTTYYADSVKGRFTISRDNAKNTVYLQMNSLKPEDTAVYYCAARWGPYAFTYVRTYDYWGQGTQVTVSS | low polyreactivity |
| QVQLVESGGGLVQAGGSLRLSCAASGRIIGRYAMGWYRPAPGKERELVAAISSSGSTYYADSVKGRFTISRDNAKNTVYLQMNSLKPEDTAVYYSAAYYRGRAYISYGYWGQGTQVTVSS | high polyreactivity |
| QVQLVESGGGLVQAGGSLRLSCAASGRIIGSYAMGWYRQAPGKERELVAAISRGGITNYADSVKGRFTIARDNAKNTVYLQMNSLKPEDTAVYYCAVGIRYRGRQGYYGYYTYDYWGQGTQVTVSS | high polyreactivity |
| QVQLVESGGGLVQAGGSLRLSCAASGRIIGTNARGWYRQAPGNERELVASISSRSTRTYYADSVKGRFTISRDNAKNTVYLQMNSLKPEDTAVYYCAARYPYYVHYDYWGQGTQVTVSS | high polyreactivity |
| QVQLVESGGGLVQAGGSLRLSCAASGRIIIGYVMGWYRQAPGKERELVATISYSGGSTYADSVKGRFTISRDNAKNTVYLQMNSLKPEDTAVYYCAARPYYRYYRYPYGYWGQGTQVTVSS | high polyreactivity |
| QVQLVESGGGLVQAGGSLRLSCAASGRIIKFYAMGWYRQAPGKERELVARISRSGGRTYYADSVKGRFTISRDNAKITVYLQMNSLKPEDTAVYYCAADTQSVATYDYWGQGTQVTVSS | low polyreactivity |
| QVQLVESGGGLVQAGGSLRLSCAASGRIINYNARGWYRQAPGKERELVAAISSSGGSTYYADSVKGRFTISRDNAKNTVYLQMNSLKPEDTAVYYCNALGTTEYWSRDDYWGQGTQVTVSS | low polyreactivity |
| QVQLVESGGGLVQAGGSLRLSCAASGRIIQYNAMGWYRQAPGKERELVAAMSWRSGRTYYADSVKGRFTISRDNAKNTVYLQMNSLKPEDTAVYYCAATSRTSWYGYWGQGTQVTVSS | high polyreactivity |
| QVQLVESGGGLVQAGGSLRLSCAASGRIIRRYAMGWYRQAPGKERELVAAISRSGGSTYYADSVKGRFTISRDNAKNTVFLQMKRLKPEDTAVYYCNRRYITYNYDYWGQVTQVTVSS | high polyreactivity |
| QVQLVESGGGLVQAGGSLRLSCAASGRIIRVNAMGWYRQAPGKERELVAAISGRGGSTYYADSVKGRFTISRDNAKITVYLQMNSLKPEDTAVYYCAKKSYSYGYNSYDYWGQGTQVTVSS | high polyreactivity |
| QVQLVESGGGLVQAGGSLRLSCAASGRIISPYAMGWYRQAPGKERELVAAISWRGSSTYYADSVKGRFTISRDNAKNTVYLQMNSLKPEDTAVYYCAAVYYRGIQSYDYWGQGTQVTVSS | low polyreactivity |
| QVQLVESGGGLVQAGGSLRLSCAASGRIISRYAMGWYRQAPGKERELVAAISRRGGSTYYADSVKGRFTISRDNAKNTVYLQLNSLKPEDTAVYYCNADTGNRGYDYWGQGTQVTVSS | high polyreactivity |
| QVQLVESGGGLVQAGGSLRLSCAASGRIISVYAMGWYRQAPGKERELVATITGGNTNYADSVKGRFTISRDNAKNTVYLQMNSLKPEDTAVYYCAKQFLPSGVYYEYDSWGQGTQVTVSS | low polyreactivity |
| QVQLVESGGGLVQAGGSLRLSCAASGRIITRNAMGWYRPAPGKERELVAAISSGGSTSYADSVKGRFTISRDNAKNTVYLQLNSVKPEDTAVYYCATKWYWWYDGYYYWGQGTQVTVSS | low polyreactivity |
| QVQLVESGGGLVQAGGSLRLSCAASGRIITTYAMGRYRQAPGKERELVAPITSDGRTYYADSVKVRFTISRDNATHSVYLQMYSMKPEDTAVYYCNAAGRYAFPFGYNYWGQGTQVTVSS | high polyreactivity |

| Sequence | polyreactivity (PSR sort gate) |
| --- | --- |
| QVQLVESGGGLVQAGGSLRLSCAASGRIIWSNAMGWYRQAPGKERELVAGITGSGGNTYYADSVKGRFTISRDNAKNTVYLHMNSLKPEDTAVYYCNARSGSRPSSSYRYDYWGQGTQVTVSS | low polyreactivity |
| QVQLVESGGGLVQAGGSLRLSCAASGRIIYNAMGWYRQAPGKERELVAAITSNGCSTYYADSVKGLFTISRDTAKNTVYLQMNSLKPEDTAVYYCARDVNSVPSEVKYDYWGQGTQVNVSS | low polyreactivity |
| QVQLVESGGGLVQAGGSLRLSCAASGRIIYTNAMGWYRQAPGKERELVAAINRSGGITYYADSVKGRFTISRDNAKNTVYLQMNSLKPEDTAVYYCAKDYSWASYNHDYWGQGTQVTVSS | low polyreactivity |
| QVQLVESGGGLVQAGGSLRLSCAASGRIIYTYAMGWYRQAPGKERELVAAISWSGGSTYYADSVKGRFTISRDNAKNTVYLQMKSLKPEDTAVYFCNAAYYGYENLSKRGYWGQGTQVTVSS | high polyreactivity |
| QVQLVESGGGLVQAGGSLRLSCAASGRIIYVKAMGWYRQAPGKERELVAAISSRGGTTYYADSVKGRFTISRDNAKNSVYLQMNSLKPEDTAVYYCNAGRVRHGNDYWGQGTQVTVSS | high polyreactivity |
| QVQLVESGGGLVQAGGSLRLSCAASGRILARYAMGWYRQAPGKERELVAAITSRGGSTSYADSVKGRFTISRDNAKNTVYLQMNSLKPEDTAVYYCAKGERSANGGLFAGRHGYWGQGTQVTVSS | low polyreactivity |
| QVQLVESGGGLVQAGGSLRLSCAASGRILASYAMGWYRQAPGKERELVAAIRYRGSTSYADSVKGRFTISRDNANNTVYLQMNSLKPEDTAVYYCNAGLEYYYWGYTWEFDYWGQGTQVTVSS | low polyreactivity |
| QVQLVESGGGLVQAGGSLRLSCAASGRILAWYAMGWYRQAPGKEREFVAGITGSVGSTYYADSVKGRFTISRDKAKNTVYLQMNSLKPEDPAVYYCNKDWDRTSGPKHYYWGQGTQVTVSS | low polyreactivity |
| QVQLVESGGGLVQAGGSLRLSCAASGRILDRYAMGWYRQAPGKERELVAVITDRGGNTYYADSVKGRFTISRDNAKNTVYLQMNSLKPEDTAVYYCAVYAYWRFRTYYYWGQGTQVTVSS | high polyreactivity |
| QVQLVESGGGLVQAGGSLRLSCAASGRILDVYVMGWYRQAPGKERELVAAISSGGSTYYADSVKGRFTISRDNAKNTVYLQMNSLKPEDTAVYYCAFYYWGQGTQVTVSS | high polyreactivity |
| QVQLVESGGGLVQAGGSLRLSCAASGRILFFNAMGWYRQAPGKERELVAAISVSGGSTYYADSVKGRFTISRDNAQNTVYLQMNSLKPEDTAVYYCAKGYDFRRRYDYWGQGTQVTVSS | low polyreactivity |
| QVQLVESGGGLVQAGGSLRLSCAASGRILFGYAMGWYRQAPGKERELVADITSTGSTNYADSVKGRFTISRDNAKNTVYLQMNSLNPEDTAVYYCNARRESYYQRYRVDYWGQGTQVTVSS | low polyreactivity |
| QVQLVESGGGLVQAGGSLRLSCAASGRILFRYGMGWYRQAPGKERELVARISWSGGNTHYADSVKGRFTISRDNAKNTVYLQMNSLKPEDTAVYYCNAYYTYWYPRYDYWGQGTQVTVSS | low polyreactivity |
| QVQLVESGGGLVQAGGSLRLSCAASGRILFSYAMGWYRQAPGKERELVATISSGGRTNYADSVKGRFTISRDNAKNTVYLQMNSLKPEDTAVYYCNTEYLVWYPYDYWGQGTQVTVSS | low polyreactivity |
| QVQLVESGGGLVQAGGSLRLSCAASGRILGDYAMGWYIQAPGKERELVAAISSGGTTYYADSVKGRFTISRDNAKNTVYLQMNSLKPEDTAVYYCAALTSTLPAYGYWGQGTQVTVSS | low polyreactivity |
| QVQLVESGGGLVQAGGSLRLSCAASGRILGFNVMGWYRQAPGKERELVAAITTSGGSTYYADSVKGRFTISRDNAKNTVYLQMNSLKPEDTAVYYCAARYRRFRFTHYDYWGQGTQVTVSS | high polyreactivity |
| QVQLVESGGGLVQAGGSLRLSCAASGRILGRNAMGRYRQAPGKEREFVAGISYSGTSTYYADSVKGRFTISRDNAKNTVYLQMNSLKPEDTAVYYCAARSTWFQIRYGYWGQGTQVTVSS | high polyreactivity |
| QVQLVESGGGLVQAGGSLRLSCAASGRILGRNAMGWYRQAPGKEREFVAGISYSGTSTYYADSVKGRFTISRDNAKNTVYLQMNSLKPEDTAVYYCNVKNQVYRRYYYWGQGTQVTVSS | high polyreactivity |
| QVQLVESGGGLVQAGGSLRLSCAASGRILGRYAMGWYRQAPGKEREVVATITSGDDTNYADSVKGRFTISRDHAKNTVYLQMNSLKPEDTAVGFWGQGSQVTVSS | low polyreactivity |
| QVQLVESGGGLVQAGGSLRLSCAASGRILKRNAMGWYRQAPGKERELVAAISWSTGTTYYADSVKGRFTISRDNAKNTVYLQMNSLKPEDTAVYYCAKQIVSGRRVDRNDYWGQGTQVTVSS | low polyreactivity |
| QVQLVESGGGLVQAGGSLRLSCAASGRILKSYAMGWYRQAPGKERELVAAITSSGVSTYYADSVKGRFTISRDNAKNTVYLQMNSLKPEDTAVYYCAARNYRYPIMGYWGQGTEVTVSS | high polyreactivity |

Reference: the nanobody polyreactivity screen of Harvey et al. (2022)
